In the supplement of paper PMC7877785:
± gives the uncertainty stated by the source.

Test: self-splicing fitness, log relative to wild type (ln ratio); higher = more splicing; Tetrahymena group I intron in knt gene, E. coli kanamycin selection, DiMSum; sequences stand for … in CUCUCU…GGAGGGAAAAGUUAUCAGGCAUGCACCUGGUAGCUAGUCUUUAAACCAAUAGAUUGCAUCGGUUUAAAAGGCAAGACCGUCAAAUUGCGGGAAAGGGGUCAACAGCCGUUCAGUACCAAGUCUCAGGGGAAACUUUGAGAUGGCCUUGCAAAGGGUAUGGUAAUAAGCUGACGGACAUGGUCCUAACCACGCAGCCAAGUCCUAAGUCAACAGAUCUUCUGUUGAUAUGGAUGCAGUUCACAGACUAAAUGUCGGUCGGGGAAGAUGUAUUCUUCUCAUAAGAUAUAGUCGGACCUCUCCUUAAUGGGAGCUAGCGGAUGAAGUGAUGCAACACUGGAGCCGCUGGGAACUAAUUUGUAUGCGAAAGUAUAUUGAUUAGUUUUGGAGUACUCGUGGUCG
Outline: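 A randomised library covering all eight P1ex-region intron nucleotides was built with the intron in the knt kanamycin-resistance gene on pET-22b(+) and held in E. coli BL21(DE3). Cells were grown overnight at 37°C or 30°C on LB agar, with or without 25 μg/mL kanamycin, plus 100 μg/mL carbenicillin, 50 μM IPTG and 0.2% rhamnose, and pooled colonies were amplicon-sequenced on an Illumina HiSeq 2500. DiMSum fitness is the error-weighted combination of wild-type-normalised replicate fold changes, kanamycin versus none.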

Sequence | self-splicing fitness (ln) (30 °C) | self-splicing fitness (ln) (37 °C)
AGGUAGCAAUAUUACGCAUG | -2.022 ± 0.017 | -1.22 ± 0.034
ACCGAGCAAUAUUACGAGCU | -2.94 ± 0.23 | -2.54 ± 0.28
CUAGAGCAAUAUUACGAAGG | -1.22 ± 0.12 | -0.403 ± 0.15
AGCAAGCAAUAUUACGCCCU | -2.12 ± 0.26 | -0.679 ± 0.36
AUGAAGCAAUAUUACGAUAU | -0.294 ± 0.066 | 0.229 ± 0.083
GAACAGCAAUAUUACGAGGC | -3.07 ± 0.18 | -2.03 ± 0.14
ACUCAGCAAUAUUACGGAAU | -1.75 ± 0.084 | -0.549 ± 0.11
CCCAAGCAAUAUUACGAGAU | -2.91 ± 0.14 | -3.31 ± 0.21
UCUCAGCAAUAUUACGCGUG | -4.26 ± 0.24 | -3.11 ± 0.21
CCAGAGCAAUAUUACGAGAC | -4.31 ± 0.46 | -2.66 ± 0.3
CGCUAGCAAUAUUACGCCGG | -3.06 ± 0.29 | -2.24 ± 0.45
UGCCAGCAAUAUUACGGGGU | -3.57 ± 0.21 | -2.48 ± 0.2
ACAAAGCAAUAUUACGAGAU | -4 ± 0.19 | -1.55 ± 0.097
UGCGAGCAAUAUUACGUAAG | -3.72 ± 0.26 | -2.34 ± 0.28
GGACAGCAAUAUUACGAUUG | -1.09 ± 0.12 | -1.15 ± 0.19
UAAUAGCAAUAUUACGGUAA |  | -1.04 ± 0.28
GCCCAGCAAUAUUACGGAAG | -2.76 ± 0.13 | -1.4 ± 0.11
GCCAAGCAAUAUUACGCUGG | -4.4 ± 0.28 | -2.37 ± 0.18
CGGAAGCAAUAUUACGCUGC | -2.35 ± 0.41 | -1.78 ± 0.2
UAAAAGCAAUAUUACGGCCA | 0.0708 ± 0.15 | 0.573 ± 0.19
GUUAAGCAAUAUUACGCCCA | 0.115 ± 0.22 | -0.355 ± 0.29
UCGAAGCAAUAUUACGCAUC | -1.47 ± 0.29 | -2.36 ± 0.3
CUGGAGCAAUAUUACGCGUU | -3.89 ± 0.33 | -1.86 ± 0.27
AAAGAGCAAUAUUACGUGGG | -3.99 ± 0.18 | -3.8 ± 0.2
ACCAAGCAAUAUUACGGAUA | -2.56 ± 0.14 | -1.56 ± 0.12

Sequence | self-splicing fitness (ln) (30 °C) | self-splicing fitness (ln) (37 °C)
CAUGAGCAAUAUUACGAGUG | -2.67 ± 0.13 | -3 ± 0.21
CUACAGCAAUAUUACGCAAC | -3.66 ± 0.36 | -3.03 ± 0.29
GGUAAGCAAUAUUACGUACU | -1.82 ± 0.32 | 
CUCCAGCAAUAUUACGUCAA | -3.08 ± 0.19 | -3.24 ± 0.23
GUUCAGCAAUAUUACGCUCU | -0.149 ± 0.09 | 0.0537 ± 0.097
GUGGAGCAAUAUUACGUGCU | -3.68 ± 0.2 | -3.09 ± 0.4
CCUAAGCAAUAUUACGACUC | -3.42 ± 0.38 | -2.04 ± 0.3
CGCAAGCAAUAUUACGACGA | -1.48 ± 0.11 | -0.997 ± 0.11
UGCCAGCAAUAUUACGUAUC | -3.22 ± 0.19 | -3.05 ± 0.28
AGAUAGCAAUAUUACGCCUU | -0.881 ± 0.09 | -0.255 ± 0.11
CCUGAGCAAUAUUACGUUUA | -3.15 ± 0.15 | -1.57 ± 0.17
UUGAAGCAAUAUUACGAACA | 0.602 ± 0.15 | -0.488 ± 0.23
UCAAAGCAAUAUUACGGUAG | -1.54 ± 0.088 | -1.19 ± 0.11
UUACAGCAAUAUUACGCCUC | -3.31 ± 0.38 | -2.03 ± 0.38
GAUAAGCAAUAUUACGCCUA | -0.016 ± 0.19 | -0.316 ± 0.19
GCGUAGCAAUAUUACGCUUG |  | -2.26 ± 0.33
GCUUAGCAAUAUUACGUAAG | -2.18 ± 0.12 | -0.181 ± 0.17
GCAUAGCAAUAUUACGUACG | -1.42 ± 0.076 | -1.14 ± 0.09
GGUUAGCAAUAUUACGCGUA | -0.642 ± 0.091 | -0.174 ± 0.083
AUUUAGCAAUAUUACGCGGA | -1.73 ± 0.23 | -0.805 ± 0.17
UAUAAGCAAUAUUACGUGGU | -3.76 ± 0.29 | -2.53 ± 0.21
CCUGAGCAAUAUUACGCAAU | -3.31 ± 0.19 | -2.68 ± 0.24
CCAAAGCAAUAUUACGACUU | -3.77 ± 0.16 | -3.01 ± 0.2
AACGAGCAAUAUUACGAUUC |  | 0.32 ± 0.17
UAUGAGCAAUAUUACGGCCA |  | -1.18 ± 0.28

Sequence | self-splicing fitness (ln) (30 °C) | self-splicing fitness (ln) (37 °C)
CUUUAGCAAUAUUACGAUAU | -3.93 ± 0.35 | -3.25 ± 0.38
CAUGAGCAAUAUUACGCCAA | -3.67 ± 0.41 | -2.53 ± 0.36
AGCAAGCAAUAUUACGGUUC | -3.75 ± 0.17 | -3.42 ± 0.25
UCUCAGCAAUAUUACGUAGU | -1.71 ± 0.1 | -0.822 ± 0.11
CACGAGCAAUAUUACGACGU | -3.25 ± 0.17 | -3.34 ± 0.23
GAUGAGCAAUAUUACGACCU | -1.4 ± 0.18 | -1.36 ± 0.16
CCUUAGCAAUAUUACGAGUG | -1.07 ± 0.082 | 0.122 ± 0.11
AAUCAGCAAUAUUACGGACA | -0.225 ± 0.077 | -0.145 ± 0.091
UUGAAGCAAUAUUACGACUU | -1.37 ± 0.14 | 0.101 ± 0.17
UUGAAGCAAUAUUACGCCGG | -0.0467 ± 0.11 | 0.0153 ± 0.15
CUGGAGCAAUAUUACGAUUC | -2.02 ± 0.29 | 
AUCCAGCAAUAUUACGCCAC | -2.03 ± 0.18 | -2.5 ± 0.2
GCAAAGCAAUAUUACGGCAC | -0.648 ± 0.081 | -0.426 ± 0.09
CAGCAGCAAUAUUACGUAUC | -3.6 ± 0.19 | -2.13 ± 0.13
UUGCAGCAAUAUUACGGUCC | -4.25 ± 0.39 | -2.69 ± 0.26
ACCCAGCAAUAUUACGCUUA | -0.429 ± 0.07 | -0.188 ± 0.078
UAGGAGCAAUAUUACGGGCG | -2.73 ± 0.19 | -2.58 ± 0.23
UACUAGCAAUAUUACGGUAG | -1.92 ± 0.11 | -1.09 ± 0.12
GCGAAGCAAUAUUACGACUU | -1.4 ± 0.1 | -0.741 ± 0.12
UAACAGCAAUAUUACGAGGG | -3.58 ± 0.2 | -3.12 ± 0.22
CUCGAGCAAUAUUACGUCUC | -2.55 ± 0.23 | -2.5 ± 0.39
CCUAAGCAAUAUUACGUCGA | -2.67 ± 0.23 | -2.77 ± 0.25
GAAUAGCAAUAUUACGGCCA | -0.596 ± 0.1 | -0.0233 ± 0.13
UGCCAGCAAUAUUACGGGAU | -3.16 ± 0.13 | -2.44 ± 0.18
GUUUAGCAAUAUUACGCCGA | -2.93 ± 0.4 | 

Sequence | self-splicing fitness (ln) (30 °C) | self-splicing fitness (ln) (37 °C)
GCAUAGCAAUAUUACGGAGC | -3.59 ± 0.25 | -2.73 ± 0.23
GGCGAGCAAUAUUACGUGAC | -1.24 ± 0.18 | -1.65 ± 0.29
UUCAAGCAAUAUUACGCGGG | -3.35 ± 0.28 | -1.95 ± 0.21
UACGAGCAAUAUUACGAGGA | -3.51 ± 0.26 | -2.48 ± 0.22
GCUAAGCAAUAUUACGACCA | -2.09 ± 0.21 | -1.34 ± 0.26
ACUUAGCAAUAUUACGGAAU | -2.99 ± 0.17 | -2.13 ± 0.2
UUCUAGCAAUAUUACGACUA | -1.83 ± 0.31 | -1.19 ± 0.21
CCUAAGCAAUAUUACGUUAC | -4.69 ± 0.36 | -3.03 ± 0.32
AGUGAGCAAUAUUACGGCUA | -0.705 ± 0.24 | -1.38 ± 0.23
CGUGAGCAAUAUUACGUCCA | -2.37 ± 0.26 | -2.38 ± 0.34
AGGAAGCAAUAUUACGUAAC | -3.65 ± 0.3 | -2.18 ± 0.42
UCAAAGCAAUAUUACGAAGA | -2.21 ± 0.18 | -1.02 ± 0.13
GAUAAGCAAUAUUACGGUGC | -2.8 ± 0.19 | -2.17 ± 0.22
CCACAGCAAUAUUACGUCCG | -0.456 ± 0.053 | 0.344 ± 0.068
UUUUAGCAAUAUUACGCACU | -0.447 ± 0.12 | -0.218 ± 0.15
CAUAAGCAAUAUUACGCUCA | -1.25 ± 0.088 | -1.18 ± 0.11
UUAGAGCAAUAUUACGGUAC | -3.85 ± 0.26 | -2.79 ± 0.4
UAUGAGCAAUAUUACGGUCG | -2.52 ± 0.12 | -1.19 ± 0.12
UGCUAGCAAUAUUACGAGCG | -2.86 ± 0.2 | -0.792 ± 0.17
UCCAAGCAAUAUUACGAGGG | -3.08 ± 0.2 | -2.31 ± 0.31
GGCGAGCAAUAUUACGAGAU | -3.61 ± 0.32 | -2.37 ± 0.49
GGUUAGCAAUAUUACGUACU | -1.22 ± 0.24 | -1.27 ± 0.32
